Laboratory results published in patent publication US10584341, “Antagonistic PDL1 aptamers and their applications in cancer therapy” (Academia Sinica).
Read-outs that look alike come from different tables or passages of the source.

B1: AP36 (ssDNA)
DNA: TCCCTACGGCGCTAACCATGTTTTCGAAAGACAATCCGCTGCCCTGGCCACCGTGCTACAAC
B2: AP22 (ssDNA)
DNA: TCCCTACGGCGCTAACAAACTAGGGTCCATTTGTGTACCTGCGAGCCACCGTGCTACAAC
B3: AP14 (ssDNA)
DNA: TCCCTACGGCGCTAACCACTCAATAATTCCACTGCTACATACGTTTGCCACCGTGCTACAAC
B4: AP48 (ssDNA)
DNA: TCCCTACGGCGCTAACCATGTTCCTTTCGTTCTGCCTTTTCCTTCCGCCACCGTGCTACAAC
B5: AP32 (62-nt) (ssDNA)
DNA: TCCCTACGGCGCTAACACATCAACTTGATAGACAACTGCGTCCACTGCCACCGTGCTACAAC
B6: AP33 (ssDNA)
DNA: TCCCTACGGCGCTAACCATCTGGTACCTTACGACGCTTCATCTCCCGCCACCGTGCTACAAC

Experiments:
[1] = biological target: T1, PDL1 (CD274, B7-H1) (Homo sapiens, UniProt Q9NZQ7 Q9NZQ7:19-238); assay: filter; passed cut-off of 5 for PDL1/BSA signal, qPCR
T1 sequence (Q9NZQ7 19-238, one chain of several): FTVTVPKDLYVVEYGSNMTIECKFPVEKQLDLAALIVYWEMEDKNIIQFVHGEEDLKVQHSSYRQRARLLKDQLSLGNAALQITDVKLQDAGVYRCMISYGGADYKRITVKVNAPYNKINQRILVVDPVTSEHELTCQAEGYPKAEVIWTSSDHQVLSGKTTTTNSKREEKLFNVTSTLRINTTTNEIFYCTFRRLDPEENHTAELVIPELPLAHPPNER
Method: Evaluation of the Relative Binding Ability of Candidate PDL1 Aptamers Using Nitrocellulose Filter Binding Assay The sequences of candidate PDL1 targeting aptamers were ranked by output reads from next-generation sequencing and sequences with output reads over 100 were analyzed. Among them, top 50 candidate aptamer sequences accounted for over 85% output reads. To evaluate their binding abilities toward PDL1, these top 50 candidate aptamers were synthesized and analyzed by nitrocellulose filter binding assay. The binding abilities toward BSA were used as negative control. In brief, candidate aptamer was incubated with PDL1 or BSA, respectively. Aptamer-protein complexes were collected by nitrocellulose filter and eluted by heating. The number of eluted aptamer was quantified by quantitative PCR and normalized by dividing the signal from PDL1 group to signal from BSA group. In order to find out the PDL1 aptamer with higher specificity, the cut-off value was set at 5.

[2] = biological target: PDL1 (CD274) on CT26 cells (Mus musculus, UniProt Q9EP73 Q9EP73:19-290); assay: flow; apparent Kd on CT26 cells; details: tags: endogenous, CT26 colorectal cancer cells; label: fluorescent dye (not specified)
Sequence of PDL1 (CD274) on CT26 cells (Q9EP73 19-290, one chain of several): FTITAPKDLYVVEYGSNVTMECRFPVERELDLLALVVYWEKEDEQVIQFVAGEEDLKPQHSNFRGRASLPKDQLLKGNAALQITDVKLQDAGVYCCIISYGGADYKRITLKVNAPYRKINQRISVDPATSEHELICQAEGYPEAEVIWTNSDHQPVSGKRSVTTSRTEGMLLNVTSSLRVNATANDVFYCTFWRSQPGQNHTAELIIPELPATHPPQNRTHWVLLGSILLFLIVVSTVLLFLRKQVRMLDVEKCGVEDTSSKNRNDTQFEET

[3] = biological target: PDL1 (CD274) on LL/2 cells (Mus musculus, UniProt Q9EP73 Q9EP73:19-290); assay: flow; apparent Kd on LL/2 cells; details: tags: endogenous, LL/2 lung carcinoma cells; label: fluorescent dye (not specified)
Sequence of PDL1 (CD274) on LL/2 cells (Q9EP73 19-290, one chain of several): as above

[4] = biological target: T1, PDL1 (CD274, B7-H1); assay: competition; ED50 for blocking PD-1:PDL1, ELISA
Method: Identification of Antagonistic PDL1 Aptamers Using an ELISA-Based Competition Assay To investigate the efficacy of candidate PDL1 aptamers as antagonistic agents, ELISA-based competition assay was performed. Human PDL1 recombinant protein (2 µg/ml) was coated onto wells of 96-well ELISA plates and blocked by BSA (10 mg/ml). Human PD-1 protein (0.6 µg/ml) and aptamer (500 nmole/l) were added into wells simultaneously. After washing away unbound human PD-1 protein, PD-1 protein which remained in wells was detected by HRP-labeled anti-human IgG antibody. TMB was used as HRP substrate for color development and absorbance at 652 nm was detected by ELISA plate reader. Remained human PD-1 protein amount was quantified using standard curve which built by serial diluted human PD-1 protein. Wells without PDL1 coating were used as negative control.
To further investigate 50% effective dose of AP14 and AP32 as PDL1 blocking agents, serial diluted AP14 and AP32 ranged from 12.5 nmole/l to 500 nmole/l were used in previously mentioned ELISA-based competition assay.

[5] = Mfold-predicted long terminal stem and two short stem loops

Binder | binding signal [1] | other results
B1 | > 5 fold over BSA | 
B2 | > 5 fold over BSA | 
ACGGGCCACATCAACTCATTGATAGACAATGCGTCCACTGCCCGT (ssDNA) [aptPDL1 fluorescently labeled] |  | Kd [2]: ~250 nM; Kd [3]: ~155 nM
B3 | > 5 fold over BSA | EC50 [4]: 41 nM
B4 | > 5 fold over BSA | 
B5 |  | EC50 [4, 5]: 12 nM; binding signal [1, 5]: > 5 fold over BSA
B6 | > 5 fold over BSA | 
